{
  "source": "IntAct's records for PubMed 26823173",
  "parents": {"B1": {"name": "Coronin-1A (Mus musculus), O89053 (parent)", "chain": "MSRQVVRSSKFRHVFGQPAKADQCYEDVRVSQTTWDSGFCAVNPKFMALICEASGGGAFLVLPLGKTGRVDKNVPLVCGHTAPVLDIAWCPHNDNVIASGSEDCTVMVWEIPDGGLVLPLREPVITLEGHTKRVGIVAWHPTAQNVLLSAGCDNVILVWDVGTGAAVLTLGPDVHPDTIYSVDWSRDGALICTSCRDKRVRVIEPRKGTVVAEKDRPHEGTRPVHAVFVSEGKILTTGFSRMSERQVALWDTKHLEEPLSLQELDTSSGVLLPFFDPDTNIVYLCGKGDSSIRYFEITSEAPFLHYLSMFSSKESQRGMGYMPKRGLEVNKCEIARFYKLHERKCEPIAMTVPRKSDLFQEDLYPPTAGPDPALTAEEWLGGRDAGPLLISLKDGYVPPKSRELRVNRGLDSARRRATPEPSGTPSSDTVSRLEEDVRNLNAIVQKLQERLDRLEETVQAK"}},
  "data": [
    {"variants_of": "B1", "conditions": "with gnas2_human GNAS", "values": [
      {"variant": "T418A;T424A", "effect of a mutation on the interaction": "disrupting interaction"},
      {"variant": "T424A", "effect of a mutation on the interaction": "decreasing interaction"},
      {"variant": "T418A", "effect of a mutation on the interaction": "decreasing interaction"}
    ]},
    {"variants_of": "B1", "conditions": "with gnas2_human GNAS", "remark": "another data set of the same source", "values": [
      {"variant": "T418E;T424E", "effect of a mutation on the interaction": "disrupting interaction"}
    ]}
  ]
}
